Tested on: T1, MBP-RstA D52A D52A (Pseudomonas fluorescens 2P24), ORF:4a43b447
T1 sequence: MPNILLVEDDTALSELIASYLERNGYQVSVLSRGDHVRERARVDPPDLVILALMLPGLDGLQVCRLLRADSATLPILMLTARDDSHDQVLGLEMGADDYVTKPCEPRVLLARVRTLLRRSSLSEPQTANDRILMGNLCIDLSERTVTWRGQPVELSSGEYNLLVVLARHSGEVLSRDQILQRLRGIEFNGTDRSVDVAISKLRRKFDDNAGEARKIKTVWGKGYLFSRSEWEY
Experiment: EMSA
Conditions: EMSA: 50 mM Tris-HCl pH 7.5, 10 mM MgCl2, 10% glycerol, 0.5 mM EDTA, 50 mM KCl, 3 uM BSA, 50 ng DNA in 20 ul, 30 min room temperature, 6% native PAGE

In the case of “CGGCCTGTGTGATTACACAATTTCACAGAGCGCCTACAAAGCTTCACCCCTGTCATGGGCCTGGATCCCTACCATGAGCGGCTCAATATTGGGGAAGCACC (double strand) [FAM-mexC promoter]”, the binding is reported as “binds more weakly”.
“GGCAATAAACACCTCAATCAGGATGCGTCAGCAATGCGTAAGCATCAGCTGAACAAAATATGAGGCGACGTCTCTTGAAACGCGTCTCCGATCTATACAGGCCTTTGTCAGGCTTTTGTAAATCCGGATATTACGCAATTTGGCTGTTTACAAACAACCGTGTACGTAAGTATATTTCTTAGCATCCTACTAATTGAAAAAATGCTCCTTTTTTACCCTTCCACCTTTCGAGTGCGCCAGTTACGCGCCTGGACCCGAGGATTT (double strand) [FAM-emhA promoter]” was tested, and the binding was “binds more weakly”.

— article PMC8562477
